Test results from the supplement of paper PMC10567573.

B1: CDC25A (parent)
chain: KPIVPTDGKRVIVVFHCEFSSERG

Variants of: B1
Experiment: protein stability index of a GFP-peptide fusion (GPS, HEK-293T) (PSI 1-6); higher = more stable
Conditions: c terminus: a fixed tail appended
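Note: lentivirally expressed fusions sorted by FACS into six bins by GFP to DsRed ratio, PSI derived from sequencing read proportions per bin multiplied by bin number.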

Protein stability index of substitutions, site by site:
F19: S 2.27, Q 2.3, G 2.15, C 1.98, E 2.47, K 2.18, L 2.32, T 2.1, P 1.8, D 2.41, W 1.86, I 1.65, A 1.71, N 2, V 2.19, H 1.86, M 2.05, R 2.22
P5: E 2.33, L 2.4, D 1.33, A 2.63, S 2.29, C 4.79, W 3.01, Y 2.66, V 2.29, T 1.55, N 4.39, H 1.5, M 2.45, I 2.42, R 1.84, G 1.69, K 2.13, F 2.19, Q 2.27
I12: S 1.82, C 2.1, K 3.13, N 2.99, F 3.2, E 2.84, L 3.39, M 2.24, V 1.63, G 3.13, A 2.11, P 3.39, H 1.83, T 2, W 2.49, D 3.47, R 1.94, Q 2
V14: Y 2.6, H 2.54, L 2.17, E 2.67, A 1.92, P 3.44, C 2.57, T 1.72, I 2.56, M 1.9, D 3.36, N 2.35, S 2.52, G 2.69, Q 2.24, W 2.09, R 2.09, F 1.83, K 2.43
V4: G 2.33, K 2.11, C 2.14, R 3.53, P 2.75, I 2.57, M 1.92, W 2.32, E 1.48, H 2.17, F 2.24, A 2.12, L 2.33, T 1.42, Q 2.44, N 3.39, D 2.51, S 2.49, Y 2.58
C17: L 2.12, W 2.91, G 1.98, T 1.86, M 1.99, Y 2.9, K 2.33, E 2.57, N 2.52, S 1.85, F 1.93, V 2.73, A 2.24, R 1.95, Q 2.32, I 2.68, D 2.77, P 2.64, H 1.38
I3: P 2.27, F 2.09, A 3.14, K 2.47, M 2.32, W 4.26, H 1.89, D 1.76, G 1.7, E 2.1, N 2.48, S 1.1, V 2.43, R 2.56, T 2.19
E18: L 1.76, A 2.51, M 2.38, S 3.26, C 2.17, Q 3.42, P 2.31, F 3.14, G 2.55, Y 2.26, D 1.79, I 2.28, V 3.1, R 2.48, K 4, N 2.34, W 2.46, H 3.13
F15: Y 1.72, A 2.47, M 1.61, I 2.73, N 3.98, P 4.14, W 1.55, L 3.28, R 3.06, Q 3.78, C 1.68, E 4.32, V 2.84, H 3.19, S 3.47, D 4.34, T 2.92, K 3.79, G 2.98
V11: W 3.24, R 1.68, S 2.35, A 1.93, P 2.31, H 1.58, E 3.05, T 1.76, D 2.65, Y 2.59, I 3.01, N 2.14, F 2.11, C 1.57, K 2.51, G 2.21, M 2.06, Q 2.25, L 2.82
P2: A 3.03, S 1.31, L 1.83, I 3.46, F 2.37, Q 2.24, Y 2.75, C 3.03, N 3.3, H 2.44, R 1.99, V 1.82, D 1.61
R10: M 2.6, K 2.51, Q 2.14, V 2.76, A 1.93, Y 2.95, P 3.09, F 2.43, W 4.02, G 2.54, E 2.96, T 2.54, D 1.77, N 2.39, L 3.23, C 3.54, S 2.33, I 1.45
K9: Q 3.32, H 2.19, W 2.4, N 2.31, V 2.77, S 2.4, C 2.67, L 2.69, E 2.58, P 1.94, A 1.56, G 2.86, R 2.92, F 2.2, T 2.66, D 2.19, M 2.36
T6: R 2.27, E 1.82, W 3.34, G 1.97, Y 2.19, S 1.86, I 2.31, D 1.8, L 1.92, K 1.83, N 2.28, A 1.44, F 2.46, V 1.61, C 2.64, H 2.71, Q 3.58, P 1.95, M 2.11
G8: Q 1.51, C 1.88, H 3.19, P 1.52, T 2.3, W 2.51, N 1.95, F 2.28, M 3.53, I 2.89, V 5.1, L 3.42, A 2.26, R 2.3, D 1.33, K 1.82, Y 2.16, E 2.13
K1: E 1.68, N 1.62, W 2.24, M 1.86, I 2.57, R 2.65, T 1.98, H 2.4, P 2.25, Q 2.15, V 3.69, S 2.04, F 1.32, Y 1.55
H16: T 3.6, G 1.76, N 1.87, P 2.46, V 2.32, Q 1.83, F 2.41, Y 3.43, K 1.49, E 1.5, L 3.13, I 2.85, S 3.2, M 4.57, A 1.79, D 2.06, R 3.3, C 2.31
V13: A 2.28, N 3.57, M 1.16, K 3.02, E 3.43, T 2.38, S 3.36, W 1.79, Q 3.24, L 2.97, H 2.08, G 2.8, F 2.33, I 3.19, R 2.91, D 3.69, P 3.21, C 1.79, Y 2.31
D7: R 2, M 2.53, A 2.21, K 1.8, H 3.21, W 4.57, L 3.2, S 1.84, T 3.31, F 2.17, Q 2.76, E 2.8, N 2.48, P 3.14, V 2.3
